T1: Human ROBO2 Ig1-Ig2-His (human, UniProt Q9HCK4 31-220)
T1 construct: the His tag is named only in the SPR paragraphs; the Octet and ELISA paragraphs print 'ROBO2 Ig1-Ig2' without a tag; also called ROBO2 Ig1-2; Human ROBO2 Ig 1,2
T1 sequence: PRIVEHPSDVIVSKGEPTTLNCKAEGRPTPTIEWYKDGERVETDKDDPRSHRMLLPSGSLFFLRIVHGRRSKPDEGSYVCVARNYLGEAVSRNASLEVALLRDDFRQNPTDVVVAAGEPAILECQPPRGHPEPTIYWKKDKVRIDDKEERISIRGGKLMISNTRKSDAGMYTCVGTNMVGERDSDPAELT

T2: Terbium (Tb) labeled-SNAP tagged ROBO2 expressed on HEK293 cells (Homo sapiens (Human), UniProt Q9HCK4 22-1378, terbium label on the SNAP tag)
T2 construct: also called Tb-labeled ROBO2 cells; ROBO2 expressing cells; not shown: SNAP tag
T2 sequence: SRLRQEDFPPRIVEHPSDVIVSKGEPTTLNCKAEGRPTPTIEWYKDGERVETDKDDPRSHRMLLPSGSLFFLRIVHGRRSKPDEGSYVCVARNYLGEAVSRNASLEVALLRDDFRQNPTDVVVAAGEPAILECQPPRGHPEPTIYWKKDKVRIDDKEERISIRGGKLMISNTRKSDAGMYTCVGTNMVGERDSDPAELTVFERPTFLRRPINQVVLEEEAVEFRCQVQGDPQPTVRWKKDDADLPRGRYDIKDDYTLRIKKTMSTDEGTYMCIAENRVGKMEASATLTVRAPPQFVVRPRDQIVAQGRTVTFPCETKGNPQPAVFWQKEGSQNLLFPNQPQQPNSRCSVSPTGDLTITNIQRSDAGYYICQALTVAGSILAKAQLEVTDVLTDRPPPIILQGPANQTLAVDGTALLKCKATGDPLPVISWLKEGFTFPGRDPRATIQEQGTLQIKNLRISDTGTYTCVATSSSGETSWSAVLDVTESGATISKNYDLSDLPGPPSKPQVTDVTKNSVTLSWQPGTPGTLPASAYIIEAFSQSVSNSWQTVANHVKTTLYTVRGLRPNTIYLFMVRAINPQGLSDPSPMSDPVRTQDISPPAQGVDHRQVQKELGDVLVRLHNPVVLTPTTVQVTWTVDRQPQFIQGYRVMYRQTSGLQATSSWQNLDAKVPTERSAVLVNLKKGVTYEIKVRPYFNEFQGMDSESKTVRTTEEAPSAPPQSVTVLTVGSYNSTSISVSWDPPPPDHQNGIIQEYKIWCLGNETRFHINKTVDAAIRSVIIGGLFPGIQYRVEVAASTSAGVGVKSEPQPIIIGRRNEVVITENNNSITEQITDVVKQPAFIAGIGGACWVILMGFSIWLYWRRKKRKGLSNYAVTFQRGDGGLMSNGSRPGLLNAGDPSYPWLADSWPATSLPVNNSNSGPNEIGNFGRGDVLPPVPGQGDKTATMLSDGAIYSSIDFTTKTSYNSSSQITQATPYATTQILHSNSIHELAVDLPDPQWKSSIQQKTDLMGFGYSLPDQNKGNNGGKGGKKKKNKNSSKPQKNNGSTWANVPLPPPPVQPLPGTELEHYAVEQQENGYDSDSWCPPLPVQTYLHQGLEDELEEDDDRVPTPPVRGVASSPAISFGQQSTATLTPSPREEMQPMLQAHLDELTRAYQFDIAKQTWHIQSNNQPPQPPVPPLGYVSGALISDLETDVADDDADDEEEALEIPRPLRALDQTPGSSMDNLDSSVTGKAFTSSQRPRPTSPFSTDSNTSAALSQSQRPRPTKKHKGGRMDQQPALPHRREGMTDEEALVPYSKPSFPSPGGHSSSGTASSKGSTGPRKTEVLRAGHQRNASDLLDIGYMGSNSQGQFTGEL

T3: Human ROBO2 overexpressed on HEK293 cells (human, UniProt Q9HCK4 22-1378)
T3 construct: also called ROBO2 cells; native ROBO2
T3 sequence: T2 sequence

B1: Ab123 (antibody, human IgG1, kappa, V domains shown)
VH: EVQLVQSGAEVKKPGASVKVSCKASGYTFTGYYMHWVRQAPGQGLEWMGWINPNSGATNFPQKFQGRVTMTRDTSITTAYMDLSRLRSDDTAVYYCARESGDDAFDIWGQGTMVTVSS
VL: DIVMTQSPSSLSASVGDRVTITCRASQSISSYLNWYQQKPGKAPKLLIYAASSLQSGVPSRFSGSGSGTDFTLTISSLQPEDFATYYCQQSVGLFFGGGTKVEIKR
notes: full-length human IgG
B2: SLIT2-N (ligand)
chain: QCSCSGSTVDCHGLALRSVPRNIPRNTERLDLNGNNITRITKTDFAGLRHLRVLQLMENKISTIERGAFQDLKELERLRLNRNHLQLFPELLFLGTAKLYRLDLSENQIQAIPRKAFRGAVDIKNLQLDYNQISCIEDGAFRALRDLEVLTLNNNNITRLSVASFNHMPKLRTFRLHSNNLYCDCHLAWLSDWLRQRPRVGLYTQCMGPSHLRGHNVAEVQKREFVCSGHQSFMAPSCSVLHCPAACTCSNNIVDCRGKGLTEIPTNLPETITEIRLEQNTIKVIPPGAFSPYKKLRRIDLSNNQISELAPDAFQGLRSLNSLVLYGNKITELPKSLFEGLFSLQLLLLNANKINCLRVDAFQDLHNLNLLSLYDNKLQTIAKGTFSPLRAIQTMHLAQNPFICDCHLKWLADYLHTNPIETSGARCTSPRRLANKRIGQIKSKKFRCSAKEQYFIPGTEDYRSKLSGDCFADLACPEKCRCEGTTVDCSNQKLNKIPEHIPQYTAELRLNNNEFTVLEATGIFKKLPQLRKINFSNNKITDIEEGAFEGASGVNEILLTSNRLENVQHKMFKGLESLKTLMLRSNRITCVGNDSFIGLSSVRLLSLYDNQITTVAPGAFDTLHSLSTLNLLANPFNCNCYLAWLGEWLRKKRIVTGNPRCQKPYFLKEIPIQDVAIQDFTCDDGNDDNSCSPLSRCPTECTCLDTVVRCSNKGLKVLPKGIPRDVTELYLDGNQFTLVPKELSNYKHLTLIDLSNNRISTLSNQSFSNMTQLLTLILSYNRLRCIPPRTFDGLKSLRLLSLHGNDISVVPEGAFNDLSALSHLAIGANPLYCDCNMQWLSDWVKSEYKEPGIARCAGPGEMADKLLLTTPSKKFTCQGPVDVNILAKCNPCLSNPCKNDGTCNSDPVDFYRCTCPYGFKGQDCDVPIHACISNPCKHGGTCHLKEGEEDGFWCICADGFEGENCEVNVDDCEDNDCENNSTCVDGINNYTCLCPPEYTGELCEEKLDFCAQDLNPCQHDSKCILTPKGFKCDCTPGYVGEHCDIDFDDCQDNKCKNGAHCTDAVNGYTCICPEGYSGLFCEFSPPMVLPRTSPCDNFDCQ
modifications: d2 label in the HTRF assay
notes: also called d2-labeled SLIT2-N

Legend:
Human ROBO2 Ig1-Ig2-His = target: T1, Human ROBO2 Ig1-Ig2-His; experiment: Octet (BLI), relative Kd
[1] = target: T2, Terbium (Tb) labeled-SNAP tagged ROBO2 …; experiment: HTRF competition, competitor d2-SLIT2-N, ROBO2 HEK293 cells
In short: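 HEK293 cells expressing Tb-labeled SNAP-ROBO2 were incubated 1 hour with 5 nM d2-SLIT2-N plus antibody, read as the 665/620 nm HTRF ratio. Controls were no antibody (maximal) and cells alone (minimal). Screening used 1 nM antibody; IC₅₀ came from 11-point, 5-fold dilutions starting at 1500 nM.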

[2] = target: T3, Human ROBO2 overexpressed on HEK293 …; experiment: flow cytometry, Geo MFI ROBO2/ROBO1 HEK293 cells, 0.1 µg/ml
Protocol: Binding of the antibodies was detected using a secondary fluorochrome conjugated anti-human IgG F(ab′)₂ antibody and samples were analyzed on a Fortessa cytometer (BD Biosciences). The fold ROBO2 selectivity was calculated as the geometric mean fluorescence intensity (Geo MFI) with ROBO2 cells/Geo MFI with ROBO1 cells. A fold change higher than 3 was considered to be ROBO2 specific (Table 2, Fold Selectivity). Some affinity matured clones had increased ROBO1 reactivity, for example Abcs 55, CTI-R2-10 and CTIR2-13.
HTRF assays were run with 5 nM d2-labeled SLIT2-N and antibodies were added at 1 nM. […] Antibodies derived from chain (Abcs series) or CDR shuffling (CTIR-2 series) were evaluated in 11-point, 5-fold dilution series with a top concentration of 1500 nM, N.T. = not tested; ^cFold selectivity was calculated as Geometric Mean Fluorescent Intensity (Geo MFI) of ROBO2/Geo MFI of ROBO1 binding. […] Outcomes: results are listed in order of assays listed in the table (left to right), I.A. = Improved Affinity

[3] = target: T2, Terbium (Tb) labeled-SNAP tagged ROBO2 …; experiment: HTRF, 5 nM d2-SLIT2-N on Tb-SNAP-ROBO2 HEK293 cells, 1 nM antibody
In short: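 Tb-SNAP-ROBO2 HEK293 cells incubated 1 hour with 5 nM d2-SLIT2-N, with 1 nM anti-ROBO2 antibody or none (maximal signal); cells alone gave minimum. HTRF read at 665/620 nm; IC50 series used 11-point, 5-fold dilutions from 1500 nM.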

[4] = target: T2, Terbium (Tb) labeled-SNAP tagged ROBO2 …; experiment: HTRF, 5 nM d2-SLIT2-N on Tb-SNAP-ROBO2 HEK293 cells, no antibody (maximal signal)
Protocol: In this assay, terbium (Tb) labeled-SNAP tagged ROBO2 expressing HEK293 cells were incubated with 5 nM d2-labeled SLIT-2N in the presence of 1 nM anti-ROBO2 antibodies for 1 hour. After incubation, fluorescence at 665 nm and 620 nm was measured on an Envision multilabel plate reader. […] Maximal signal was defined as the HTRF ratio of Tb-labeled ROBO2 cells with d2-labeled SLIT2-N in the absence of antibody, the minimum signal was defined as the HTRF ratio of Tb-labeled ROBO2 expressing HEK293 cells only. One nanomolar (nM) parental antibody, 93H2, was unable to block the HTRF assay, therefore this concentration was selected to identify clones with a higher affinity than 93H2 (Table 2, HTRF Ratio column). […] Antibodies derived from chain (Abcs series) or CDR shuffling (CTIR-2 series) were evaluated in 11-point, 5-fold dilution series with a top concentration of 1500 nM (Table 2 HTRF IC₅₀).
HTRF assays were run with 5 nM d2-labeled SLIT2-N and antibodies were added at 1 nM. […] Antibodies derived from chain (Abcs series) or CDR shuffling (CTIR-2 series) were evaluated in 11-point, 5-fold dilution series with a top concentration of 1500 nM, N.T. = not tested; ^cFold selectivity was calculated as Geometric Mean Fluorescent Intensity (Geo MFI) of ROBO2/Geo MFI of ROBO1 binding.

| Kd (Human ROBO2 Ig1-Ig2-His) [nM] | IC50 [1] [nM] | Fold Selectivity for ROBO2/ROBO1 [2] [fold] | HTRF Ratio [3] | HTRF Ratio [4] | Binder |
| --- | --- | --- | --- | --- | --- |
| 1.4 | 0.26 | 80.5 | 7710 | – | B1 |
| – | – | – | – | 11900 | B2 |
